Target: GST-tagged intracellular c-terminus of LRP6, in vitro phosphorylated with GSK3 and CK1
Test: pull-down

fold increase of the interaction against unphosphorylated GST-LRP6: 20 fold
Substance: Strep-tag-Mena-EVH1-CC (domain or fragment)
